Source: publication PMC7585440, “Sclerostin inhibits Wnt signaling through tandem interaction with two LRP6 ectodomains” (Nature Communications, 2020)

What was measured:
[1] = molecular target: T1, human LRP6 E1E2 with a C-terminal 10× His tag, labeled with the dye NT-647 (human, UniProt O75581 21-630, dye NT-647 (Monolith NT Protein Labeling kit)); assay: MST; LRP6 E1E2 or E1 labeled with NT-647 at ~5 nM, unlabeled SOST proteins or peptides titrated; 20 mM Tris-Cl pH 7.0, 200 mM NaCl, 0.5 mg/ml BSA, 0.05% Tween 20; 22 °C; Monolith NT.115 Pico; conditions: both partners purified
T1 construct: Low-density lipoprotein receptor-related protein 6 (LRP6), human, ectodomains E1 and E2; the limits P21-P630 are printed for the co-expression construct; the MST construct was cloned into another vector (pAcGP67A); also called Labeled LRP6 E1E2; source: High Five insect cells (pAcGP67A), purified (Ni-NTA, HiTrapQ, SEC), no tag cleavage; not shown: His10, C-terminal, kept
T1 sequence (looked up): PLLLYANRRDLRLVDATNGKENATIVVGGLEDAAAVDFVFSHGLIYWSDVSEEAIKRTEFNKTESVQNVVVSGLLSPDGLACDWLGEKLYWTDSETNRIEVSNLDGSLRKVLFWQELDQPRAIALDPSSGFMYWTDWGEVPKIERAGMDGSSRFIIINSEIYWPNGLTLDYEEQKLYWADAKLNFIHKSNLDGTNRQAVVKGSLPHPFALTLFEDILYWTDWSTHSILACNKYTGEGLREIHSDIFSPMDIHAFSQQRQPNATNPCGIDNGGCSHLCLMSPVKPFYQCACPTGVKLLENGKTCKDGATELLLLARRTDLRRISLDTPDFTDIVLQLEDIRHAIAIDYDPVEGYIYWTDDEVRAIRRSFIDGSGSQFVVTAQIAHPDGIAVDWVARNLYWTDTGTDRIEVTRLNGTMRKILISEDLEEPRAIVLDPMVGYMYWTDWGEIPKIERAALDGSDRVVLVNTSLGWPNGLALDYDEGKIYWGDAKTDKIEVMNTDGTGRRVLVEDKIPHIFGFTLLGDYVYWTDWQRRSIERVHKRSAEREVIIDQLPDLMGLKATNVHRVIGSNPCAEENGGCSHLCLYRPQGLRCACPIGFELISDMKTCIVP

[2] = molecular target: T2, human LRP6 E1E2 (P21–P630) with a C-terminal 10× His tag (human, UniProt O75581 21-630); assay: SEC; fluorescence-SEC: purified LRP6 E1E2–Smo-SOST complex injected at 1.5, 1, 0.5 or 0.1 µM on Superdex 200 Increase 10/300 GL; 20 mM Tris pH 7.0, 200 mM NaCl; intrinsic tryptophan fluorescence; approximate KD; conditions: both partners purified
T2 construct: Low-density lipoprotein receptor-related protein 6 (LRP6), human, ectodomains E1 and E2, residues P21-P630; Unlabelled form: crystal, SEC-MALS and fluorescence-SEC; An anti-His-tag antibody was used for the western blots of the fluorescence-SEC experiment; also called LRP6 ectodomains 1 and 2; source: High Five insect cells (baculovirus), secreted, purified (Ni-NTA, HiTrapQ, SEC); co-expressed …
T2 sequence (looked up): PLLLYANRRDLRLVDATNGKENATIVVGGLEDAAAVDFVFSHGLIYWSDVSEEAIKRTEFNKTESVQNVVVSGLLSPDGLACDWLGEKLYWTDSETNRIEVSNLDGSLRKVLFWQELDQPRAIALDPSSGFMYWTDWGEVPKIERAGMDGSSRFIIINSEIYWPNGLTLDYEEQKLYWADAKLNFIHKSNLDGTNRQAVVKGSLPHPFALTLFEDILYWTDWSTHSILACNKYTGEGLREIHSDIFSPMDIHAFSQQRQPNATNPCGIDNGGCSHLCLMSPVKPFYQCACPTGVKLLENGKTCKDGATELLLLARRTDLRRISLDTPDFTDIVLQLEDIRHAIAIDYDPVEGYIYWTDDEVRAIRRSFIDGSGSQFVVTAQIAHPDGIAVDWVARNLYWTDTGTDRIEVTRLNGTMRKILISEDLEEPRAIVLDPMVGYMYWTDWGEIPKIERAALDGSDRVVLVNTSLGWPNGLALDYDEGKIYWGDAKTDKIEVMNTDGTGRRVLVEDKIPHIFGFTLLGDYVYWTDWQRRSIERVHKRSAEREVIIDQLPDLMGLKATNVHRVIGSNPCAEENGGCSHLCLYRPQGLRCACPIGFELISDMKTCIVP

B1: human WT SOST with an N-terminal His6-SUMO tag (natural protein, UniProt Q9BQB4 24-213, looked up)
chain: QGWQAFKNDATEIIPELGEYPEPPPELENNKTMNRAENGGRPPHHPFETKDVSEYSCRELHFTRYVTDGPCRSAKPVTELVCSGQCGPARLLPNAIGRGKWWRPSGPDFRCIPDRYRAQRVQLLCPGGEAPRARKVRLVASCKCKRLTRFHNQSELKDFGTEAARPQKGRKPRPRARSAKANQAELENAY
notes: Sclerostin (SOST), human, wild type; Probably residues 24-213 (the truncated constructs begin at Q24 and the protein ends at Y213); Purified WT SOST ran as a doublet that PNGase F turned into one band (N175 likely glycosylated in part); also called Smo-SOST; SOST WT; source: High Five insect cells (pAcGP67A), purified (Ni-NTA, HiTrapQ, SEC), no tag cleavage; not shown: His6, N-terminal, kept; …
Kd [1]: 170 nM
Kd [2]: ~50 nM
